Test results reported in patent publication US20230210946A1, “TREATMENT OF CANCER” (Immutep S.A.S., priority 2020, published 2023).

Key:
Format in all cases: in vivo, human
[1] = system: HER2 negative hormone receptor-positive metastatic breast cancer; test: AIPAC Phase IIb study: progression-free survival (PFS); settings: investigator read; for PFS absolute gain / PFS Hazard Ratio: vs paclitaxel + placebo
Description: (§1) A Phase IIb clinical study was carried out to investigate the safety and efficacy of the active immunotherapy IMP321 in combination (adjunctive) with paclitaxel chemotherapy in patients with HER2 negative hormone receptor-positive metastatic breast cancer.
(§2) A multicentre, placebo-controlled, double-blind, 1:1 randomised Phase IIb study in female HER2 negative hormone receptor-positive metastatic breast cancer patients was conducted. The study comprised two stages: • stage 1 which was an open-label, safety run-in stage consisting of cohorts 1 and 2 to confirm the recommended Phase II dose (RPTD) of IMP321 in combination with paclitaxel; and • stage 2 which was a placebo-controlled, double-blind randomisation stage, paclitaxel+IMP321 at the RPTD compared to paclitaxel+placebo.
(§3) Paclitaxel+IMP321 at the RPTD of 30 mg (114 patients):
(§4) The chemo-immunotherapy phase consisted of 6 cycles of 4 weeks. Patients received weekly paclitaxel at Days 1, 8 and 15 with adjunctive treatment of study agent (IMP321) on Days 2 and 16 of each 4-week cycle. After completion of the 6-cycle chemo-immunotherapy phase, responding or stable patients received study agent (IMP321) every 4 weeks during the maintenance phase for an additional period of up to 12 injections.
(§5) Active Comparator: Paclitaxel+Placebo (112 patients):
as §4, with “(placebo)” for “(IMP321)”
Primary Outcome Measures: • 1. Stage 1 to determine the recommended phase two dose (RPTD) for the randomised phase • 2. Assessment of Progression-Free Survival (PFS)

[2] = system: HER2 negative hormone receptor-positive metastatic breast cancer; test: AIPAC Phase IIb study: overall survival (OS)
Description: as §1, §2, §3, §4, §5
as §4, with “(placebo)” for “(IMP321)”
(§6) Secondary Outcome Measures: • 1. […] Assessment of the overall survival (OS) • 3. […] Evaluation of the time to next treatment • 6. Evaluation of objective response rate (ORR) • 7. Evaluation of stable disease

[3] = Safety of s.c. IMP321 doses
[4] = system: HER2 negative hormone receptor-positive metastatic breast cancer; test: AIPAC Phase IIb study: best overall response acc. to RECIST 1.1 by BICR (ORR, DCR); settings: entire patient population
Description: as §1, §2, §3, §4, §5
The chemo-immunotherapy phase consisted of 6 cycles of 4 weeks. […]

[5] = Pharmacokinetics of s.c. IMP321 in metastatic renal cell cancer patients
[6] = AIPAC: quality of life (QoL); settings: at week 25
Source text: as §6

B1: IMP321: recombinant soluble human LAG-3Ig fusion protein, 160-kDa dimer: extracellular domain of hLAG-3 fused to the human IgG1 Fc (protein)
chain: LQPGAEVPVVWAQEGAPAQLPCSPTIPLQDLSLLRRAGVTWQHQPDSGPPAAAPGHPLAPGPHPAAPSSWGPRPRRYTVLSVGPGGLRSGRLPLQPRVQLDERGRQRGDFSLWLRPARRADAGEYRAAVHLRDRALSCRLRLRLGQASMTASPPGSLRASDWVILNCSFSRPDRPASVHWFRNRGQGRVPVRESPHHHLAESFLFLPQVSPMDSGPWGCILTYRDGFNVSIMYNLTVLGLEPPTPLTVYAGAGSRVGLPCRLPAGVGTRSFLTAKWTPPGGGPDLLVTGDNGDFTLRLEDVSQAQAGTYTCHIHLQEQQLNATVTLAIITVTPKSFGSPGSLGKLLCEVTPVSGQERFVWSSLDTPSQRSFSGPWLEAQEAQLLSQPWQCQLYQGERLLGAAVYFTELSSPG
modifications: left off: small tags and cut ends; a dimerising Fc or GST
notes: recombinant soluble human LAG-3Ig fusion protein, 160-kDa dimer: extracellular domain of hLAG-3 fused to the human IgG1 Fc
- PFS median ([1]; Luminal B type): 7.2 months
- PFS absolute gain ([1]; Luminal B type): +1.7 months
- Median PFS ([1]; age < 65 years): 7.2 months
- PFS absolute gain ([1]; age < 65 years): +1.7 months
- PFS median ([1]; low (<0.25 × 10^9/L) monocytes at baseline): 7.5 months
- PFS absolute gain ([1]; low monocytes at baseline): +2.3 months
- Median PFS ([1]; with prior CDK4/6 therapy): 5.6 months
- PFS Hazard Ratio ([1]; with prior CDK4/6 therapy): HR 1.02
- PFS absolute gain ([1]; with prior CDK4/6 therapy): −1.1 months
- Median PFS ([1]; without prior taxane therapy): 7.2 months
- PFS Hazard Ratio ([1]; without prior taxane therapy): HR 0.88
- PFS absolute gain ([1]; without prior taxane therapy): +1.7 months
- Median OS ([2]; Luminal B type, investigator read): 16.3 months
- OS absolute gain ([2]; Luminal B type, investigator read, vs paclitaxel + placebo): +3.8 months
- Median OS ([2]; age < 65 years, investigator read): 21.9 months
- OS absolute gain ([2]; age < 65 years, investigator read, vs paclitaxel + placebo): +7.1 months
- OS Hazard Ratio [95% CI] ([2]; entire patient population, investigator read, vs paclitaxel + placebo): 0.83
- gain in median OS ([2]; entire patient population, vs paclitaxel + placebo): 2.7 months
- Median OS ([2]; low (<0.25 × 10^9/L) monocytes at baseline, investigator read): 22.4 months
- OS absolute gain ([2]; low monocytes at baseline, investigator read, vs paclitaxel + placebo): +9.4 months
- Median OS ([2]; with prior CDK4/6 therapy, investigator read): 20.2 months
- OS Hazard Ratio ([2]; with prior CDK4/6 therapy, investigator read, vs paclitaxel + placebo): HR 0.84
- Median OS ([2]; without prior taxane therapy, investigator read): 21.4 months
- OS Hazard Ratio ([2]; without prior taxane therapy, investigator read, vs paclitaxel + placebo): HR 0.69
- safety ([3]; doses of 6-30 mg per s.c. injection): safe
- dose limiting toxicity ([3]; to date): No dose limiting toxicity has been observed
- Progressive disease [4]: fewer patients with immediate progression
- systemic exposure ([5]; doses of 6-30 mg per s.c. injection, metastatic renal cell cancer patients): acceptable systemic exposure
- blood concentration of IMP321 ([5]; for at least 24 hours after s.c. injection, doses of more than 6 mg): > 1 ng/mL
- deterioration in Quality of Life (QoL) [6]: not observed
